Values of other authors, collected in patent US20200069786A1, “COMPOSITION AND PROCESS FOR PREPARING VACCINE” (TREOS BIO ZRT., priority 2018, published 2020).
Like-named read-outs stand apart in the source and are kept apart here.

Tested on: TSA
[1] = TSA expression rate in HEAD and NECK
[2] = TSA expression rate in Cervical cancer
[3] = TSA expression rate in GASTRIC cancer
[4] = TSA expression rate in MELANOMA
[5] = TSA expression rate in BLADDER cancer
[6] = TSA expression rate in Esophageal
[7] = TSA expression rate in PEDIATRIC
[8] = TSA expression rate in PROSTATE cancer
[9] = TSA expression rate in LUNG cancer
[10] = TSA expression rate in LEUKEMIAS

B1: NY-BR-1 (protein, UniProt Q9BXX3 1-1397, looked up)
Ankyrin repeat …: MEEISAAAVKVVPGPERPSPFSQLVYTSNDSYIVHSGDLRKIHKAASRGQVRKLEKMTKRKKTINLNIQDAQKRTALHWACVNGHEEVVTFLVDRKCQLDVLDGEHRTPLMKALQCHQEACANILIDSGADINLVDVYGNTALHYAVYSEILSVVAKLLSHGAVIEVHNKASLTPLLLSITKRSEQIVEFLLIKNANANAVNKYKCTALMLAVCHGSSEIVGMLLQQNVDVFAADICGVTAEHYAVTCGFHHIHEQIMEYIRKLSKNHQNTNPEGTSAGTPDEAAPLAERTPDTAESLVEKTPDEAAPLVERTPDTAESLVEKTPDEAASLVEGTSDKIQCLEKATSGKFEQSAEETPREITSPAKETSEKFTWPAKGRPRKIAWEKKEDTPREIMSPAKETSEKFTWAAKGRPRKIAWEKKETPVKTGCVARVTSNKTKVLEKGRSKMIACPTKESSTKASANDQRFPSESKQEEDEEYSCDSRSLFESSAKIQVCIPESIYQKVMEINREVEEPPKKPSAFKPAIEMQNSVPNKAFELKNEQTLRADPMFPPESKQKDYEENSWDSESLCETVSQKDVCLPKATHQKEIDKINGKLEESPNKDGLLKATCGMKVSIPTKALELKDMQTFKAEPPGKPSAFEPATEMQKSVPNKALELKNEQTLRADEILPSESKQKDYEENSWDTESLCETVSQKDVCLPKAAHQKEIDKINGKLEGSPVKDGLLKANCGMKVSIPTKALELMDMQTFKAEPPEKPSAFEPAIEMQKSVPNKALELKNEQTLRADEILPSESKQKDYEESSWDSESLCETVSQKDVCLPKATHQKEIDKINGKLEESPDNDGFLKAPCRMKVSIPTKALELMDMQTFKAEPPEKPSAFEPAIEMQKSVPNKALELKNEQTLRADQMFPSESKQKKVEENSWDSESLRETVSQKDVCVPKATHQKEMDKISGKLEDSTSLSKILDTVHSCERARELQKDHCEQRTGKMEQMKKKFCVLKKKLSEAKEIKSQLENQKVKWEQELCSVRLTLNQEEEKRRNADILNEKIREELGRIEEQHRKELEVKQQLEQALRIQDIELKSVESNLNQVSHTHENENYLLHENCMLKKEIAMLKLEIATLKHQYQEKENKYFEDIKILKEKNAELQMTLKLKEESLTKRASQYSGQLKVLIAENTMLTSKLKEKQDKEILEAEIESHHPRLASAVQDHDQIVTSRKSQEPAFHIAGDACLQRKMNVDVSSTIYNNEVLHQPLSEAQRKSKSLKINLNYAGDALRENTLVSEHAQRDQRETQCQMKEAEHMYQNEQDNVNKHTEQQESLDQKLFQLQSKNMWLQQQLVHAHKKADNKSKITIDIHFLERKMQHHLLKEKNEEIFNYNNHLKNRIYQYEKEKAETENS
In the case of B1, the “TSA Expression Rate (ER)” value (BREAST) is listed as 47% and the “Expression Rate (ER) %” value [1] is listed as 2%.

B2: GASZ (protein, UniProt Q8WWH4 1-475, looked up)
Ankyrin repeat, SAM and basic …: MAASALRGLPVAGGGESSESEDDGWEIGYLDRTSQKLKRLLPIEEKKEKFKKAMTIGDVSLVQELLDSGISVDSNFQYGWTPLMYAASVANAELVRVLLDRGANASFEKDKQSILITACSAHGSEEQILKCVELLLSRNADPNVACRRLMTPIMYAARDGHTQVVALLVAHGAEVNTQDENGYTALTWAARQGHKNIVLKLLELGANKMLQTKDGKMPSEIAKRNKHHEIFNLLSFTLNPLEGKLQQLTKEDTICKILTTDSDREKDHIFSSYTAFGDLEVFLHGLGLEHMTDLLKERDITLRHLLTMREDEFTKNGITSKDQQKILAALKELQVEEIQFGELSEETKLEISGDEFLNFLLKLNKQCGHLITAVQNVITELPVNSQKITLEWASPQNFTSVCEELVNNVEDLSEKVCKLKDLIQKLQNERENDPTHIQLREEVSTWNSRILKRTAITICGFGFLLFICKLTFQRK
In the case of B2, the “TSA Expression Rate (ER)” value (LUNG) is listed as 29%, the “TSA Expression Rate (ER)” value (THYROID) is listed as 13% and the “Expression Rate (ER) %” value (TSA expression rate in CRC) is listed as 22%. For the same molecule, the “Expression Rate (ER) %” value [2] was 50%, the “Expression Rate (ER) %” value [3] was 0% and the “Expression Rate (ER) %” value [4] was 17%.

B3: MAGE-A6 (protein, UniProt P43360 1-314, looked up)
Melanoma-associated antigen 6: MPLEQRSQHCKPEEGLEARGEALGLVGAQAPATEEQEAASSSSTLVEVTLGEVPAAESPDPPQSPQGASSLPTTMNYPLWSQSYEDSSNQEEEGPSTFPDLESEFQAALSRKVAKLVHFLLLKYRAREPVTKAEMLGSVVGNWQYFFPVIFSKASDSLQLVFGIELMEVDPIGHVYIFATCLGLSYDGLLGDNQIMPKTGFLIIILAIIAKEGDCAPEEKIWEELSVLEVFEGREDSIFGDPKKLLTQYFVQENYLEYRQVPGSDPACYEFLWGPRALIETSYVKVLHHMVKISGGPRISYPLLHEWALREGEE
In the case of B3, the “TSA Expression Rate (ER)” value (BREAST) is listed as 15%, the “TSA Expression Rate (ER)” value (HCC) is listed as 36% and the “TSA Expression Rate (ER)” value (LUNG) is listed as 51%. The “Expression Rate (ER) %” value [5] was 25%, the “Expression Rate (ER) %” value (TSA expression rate in CRC) was 22% and the “Expression Rate (ER) %” value [6] was 68%. For the same molecule, the “Expression Rate (ER) %” value [1] was 58%, the “Expression Rate (ER) %” value (TSA expression rate in Kidney) was 0% and the “Expression Rate (ER) %” value [4] was 65%. The “Expression Rate (ER) %” value [7] was 80% and the “Expression Rate (ER) %” value [8] was 23%.

B4: CAGE1 (protein, UniProt Q8TC20 1-777, looked up)
Cancer-associated gene 1 …: MNKDYQKFWSSPSDPVHFEVDTSHEKVESMSESDTMNVSNLSQGVMLSHSPICMETTGTTCDLPQNEIKNFERENEYESTLCEDAYGTLDNLLNDNNIENYSTNALIQPVDTISISSLRQFETVCKFHWVEAFDDEMTEKPEFQSQVYNYAKDNNIKQDSFKEENPMETSVSANTDQLGNEYFRQPPPRSPPLIHCSGEMLKFTEKSLAKSIAKESALNPSQPPSFLCKTAVPSKEIQNYGEIPEMSVSYEKEVTAEGVERPEIVSTWSSAGISWRSEACRENCEMPDWEQSAESLQPVQEDMALNEVLQKLKHTNRKQEVRIQELQCSNLYLEKRVKELQMKITKQQVFIDVINKLKENVEELIEDKYKIILEKNDTKKTLQNLEEVLANTQKHLQESRNDKEMLQLQFKKIKANYVCLQERYMTEMQQKNKSVSQYLEMDKTLSKKEEEVERLQQLKKELEKATASALDLLKREKEAQEQEFLSLQEEFQKLEKENLEERQKLKSRLEKLLTQVRNLQFMSENERTKNIKLQQQINEVKNENAKLKQQVARSEEQNYVPKFETAQLKDQLEEVLKSDITKDTKTTHSNLLPDCSPCEERLNPADIKRASQLASKMHSLLALMVGLLTCQDIINSDAEHFKESEKVSDIMLQKLKSLHLKKKTLDKEVIDCDSDEAKSIRDVPTLLGAKLDKYHSLNEELDFLVTSYEEIIECADQRLAISHSQIAHLEERNKHLEDLIRKPREKARKPRSKSLENHPKSMTMMPALFKENRNDLD
In the case of B4, the “TSA Expression Rate (ER)” value (HCC) is given as 39%, the “Expression Rate (ER) %” value (TSA expression rate in CRC) is given as 74% and the “Expression Rate (ER) %” value [2] is given as 98%. The “Expression Rate (ER) %” value [3] was 77% and the “Expression Rate (ER) %” value [9] was 14%.

B5: TSPY1 (protein, UniProt Q01534 1-308, looked up)
Testis-specific Y-encoded …: MRPEGSLTYRVPERLRQGFCGVGRAAQALVCASAKEGTAFRMEAVQEGAAGVESEQAALGEEAVLLLDDIMAEVEVVAEEEGLVERREEAQRAQQAVPGPGPMTPESAPEELLAVQVELEPVNAQARKAFSRQREKMERRRKPHLDRRGAVIQSVPGFWANVIANHPQMSALITDEDEDMLSYMVSLEVGEEKHPVHLCKIMLFFRSNPYFQNKVITKEYLVNITEYRASHSTPIEWYPDYEVEAYRRRHHNSSLNFFNWFSDHNFAGSNKIAEILCKDLWRNPLQYYKRMKPPEEGTETSGDSQLLS
In the case of B5, the “TSA Expression Rate (ER)” value (HCC) is listed as 35%, the “Expression Rate (ER) %” value [5] is listed as 0% and the “Expression Rate (ER) %” value [3] is listed as 0%. The “Expression Rate (ER) %” value (TSA expression rate in Kidney) was 5%, the “Expression Rate (ER) %” value [10] was 12% and the “Expression Rate (ER) %” value [9] was 0%. For the same molecule, the “Expression Rate (ER) %” value (TSA expression rate in LYMPHOMAS) was 0%.

B6: MAGE-A8 (protein, UniProt P43361 1-318, looked up)
Melanoma-associated antigen 8: MLLGQKSQRYKAEEGLQAQGEAPGLMDVQIPTAEEQKAASSSSTLIMGTLEEVTDSGSPSPPQSPEGASSSLTVTDSTLWSQSDEGSSSNEEEGPSTSPDPAHLESLFREALDEKVAELVRFLLRKYQIKEPVTKAEMLESVIKNYKNHFPDIFSKASECMQVIFGIDVKEVDPAGHSYILVTCLGLSYDGLLGDDQSTPKTGLLIIVLGMILMEGSRAPEEAIWEALSVMGLYDGREHSVYWKLRKLLTQEWVQENYLEYRQAPGSDPVRYEFLWGPRALAETSYVKVLEHVVRVNARVRISYPSLHEEALGEEKGV
In the case of B6, the “TSA Expression Rate (ER)” value (HCC) is given as 45%, the “Expression Rate (ER) %” value [5] is given as 57% and the “Expression Rate (ER) %” value (TSA expression rate in CRC) is given as 44%. The “Expression Rate (ER) %” value [4] was 10%.

B7: FATE1 (protein, UniProt Q969F0 1-183, looked up)
Fetal and adult …: MAGGPPNTKAEMEMSLAEELNHGRQGENQEHLVIAEMMELGSRSRGASQKKQKLEQKAAGSASAKRVWNMTATRPKKMGSQLPKPRMLRESGHGDAHLQEYAGNFQGIRFHYDRNPGTDAVAQTSLEEFNVLEMEVMRRQLYAVNRRLRALEEQGATWRHRETLIIAVLVSASIANLWLWMNQ
In the case of B7, the “TSA Expression Rate (ER)” value (HCC) is listed as 49%, the “Expression Rate (ER) %” value (TSA expression rate in CRC) is listed as 21% and the “Expression Rate (ER) %” value [3] is listed as 2%. For the same molecule, the “Expression Rate (ER) %” value [9] was 0%.

B8: IGFS11 (protein, UniProt Q5DX21 23-431, looked up)
Immunoglobulin superfamily …: LEVSESPGSIQVARGQPAVLPCTFTTSAALINLNVIWMVTPLSNANQPEQVILYQGGQMFDGAPRFHGRVGFTGTMPATNVSIFINNTQLSDTGTYQCLVNNLPDIGGRNIGVTGLTVLVPPSAPHCQIQGSQDIGSDVILLCSSEEGIPRPTYLWEKLDNTLKLPPTATQDQVQGTVTIRNISALSSGLYQCVASNAIGTSTCLLDLQVISPQPRNIGLIAGAIGTGAVIIIFCIALILGAFFYWRSKNKEEEEEEIPNEIREDDLPPKCSSAKAFHTEISSSDNNTLTSSNAYNSRYWSNNPKVHRNTESVSHFSDLGQSFSFHSGNANIPSIYANGTHLVPGQHKTLVVTANRGSSPQVMSRSNGSVSRKPRPPHTHSYTISHATLERIGAVPVMVPAQSRAGSLV
For B8, the “TSA Expression Rate (ER)” value (HCC) is listed as 60% and the “Expression Rate (ER) %” value [3] is listed as 88%.

B9: MAGE-A12 (protein, UniProt P43365 1-314, looked up)
Melanoma-associated antigen 12: MPLEQRSQHCKPEEGLEAQGEALGLVGAQAPATEEQETASSSSTLVEVTLREVPAAESPSPPHSPQGASTLPTTINYTLWSQSDEGSSNEEQEGPSTFPDLETSFQVALSRKMAELVHFLLLKYRAREPFTKAEMLGSVIRNFQDFFPVIFSKASEYLQLVFGIEVVEVVRIGHLYILVTCLGLSYDGLLGDNQIVPKTGLLIIVLAIIAKEGDCAPEEKIWEELSVLEASDGREDSVFAHPRKLLTQDLVQENYLEYRQVPGSDPACYEFLWGPRALVETSYVKVLHHLLKISGGPHISYPPLHEWAFREGEE
For B9, the “TSA Expression Rate (ER)” value (BREAST) is given as 12%, the “TSA Expression Rate (ER)” value (HCC) is given as 36% and the “TSA Expression Rate (ER)” value (LUNG) is given as 31%. For the same molecule, the “Expression Rate (ER) %” value [5] was 29%, the “Expression Rate (ER) %” value (TSA expression rate in CRC) was 6% and the “Expression Rate (ER) %” value [6] was 26%. The “Expression Rate (ER) %” value [1] was 34%, the “Expression Rate (ER) %” value (TSA expression rate in Kidney) was 4% and the “Expression Rate (ER) %” value [10] was 21%. The “Expression Rate (ER) %” value [4] was 49%, the “Expression Rate (ER) %” value [7] was 41% and the “Expression Rate (ER) %” value [8] was 5%.
